The record followed here is patent US20250243277A1 (AVACTA LIFE SCIENCES, published 2025).

In this test the target is T1, human PD-L1-Fc (R&D Systems) (human, UniProt Q9NZQ7 19-239).
T1 construct: Bought from R&D Systems; Biotinylated in-house for the phage selection; also called huPD-L1-Fc; human PD-L1-Fc antigen; not shown: Fc part of the bought fusion
The experiment in a line: soluble Affimer ELISA.

T1 sequence (Q9NZQ7 19-239 limits assumed): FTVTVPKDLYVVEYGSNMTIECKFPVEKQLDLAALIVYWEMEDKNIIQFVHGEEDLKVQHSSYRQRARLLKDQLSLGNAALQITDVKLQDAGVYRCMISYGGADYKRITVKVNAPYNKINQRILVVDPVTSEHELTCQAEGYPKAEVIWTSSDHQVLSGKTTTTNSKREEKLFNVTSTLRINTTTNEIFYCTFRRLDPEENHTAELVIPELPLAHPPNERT

B1: Clone 123 (designed binder)
chain: MIPGGLSEAKPATPEIQEIVDKVKPQLEEKTGETYGKLEAVQYKTQVDNLVYYQRDWGTNYYIKVRAGDNKYMHLKVFKSLEPGRWRWPKEDLVLTGYQVDKNKDDELTGF
notes: His-tagged
For B1, the binding result is “binds”.

B2: Clone 128 (designed binder)
chain: MIPGGLSEAKPATPEIQEIVDKVKPQLEEKTGETYGKLEAVQYKTQVVPEVDKAEWWGTNYYIKVRAGDNKYMHLKVFKSLIRYGLRHEREDLVLTGYQVDKNKDDELTGF
notes: His-tagged
Turning to B2, the binding result is given as “binds”.

B3: Clone 124 (designed binder)
chain: MIPGGLSEAKPATPEIQEIVDKVKPQLEEKTGETYGKLEAVQYKTQVDQVLWEIFEHGTNYYIKVRAGDNKYMHLKVFKSLFHQWSPALHEDLVLTGYQVDKNKDDELTGF
notes: His-tagged
B3: the binding result is given as “binds”.

B4: Clone 126 (designed binder)
chain: MIPGGLSEAKPATPEIQEIVDKVKPQLEEKTGETYGKLEAVQYKTQVVYEPHHPYPWGTNYYIKVRAGDNKYMHLKVFKSLQYHPPYERFEDLVLTGYQVDKNKDDELTGF
notes: His-tagged
As to B4, the binding result is given as “binds”.

B5: Clone 137 (designed binder)
chain: MIPGGLSEAKPATPEIQEIVDKVKPQLEEKTGETYGKLEAVQYKTQVVLWPLQPKNWGTNYYIKVRAGDNKYMHLKVFKSLGWNYLEAIAEDLVLTGYQVDKNKDDELTGF
notes: His-tagged
Regarding B5, the binding result is “binds”.

B6: Clone 132 (designed binder)
chain: MIPGGLSEAKPATPEIQEIVDKVKPQLEEKTGETYGKLEAVQYKTQVVERYHFPQFTGTNYYIKVRAGDNKYMHLKVFKSLNHDQVRWNLEDLVLTGYQVDKNKDDELTGF
notes: His-tagged
As to B6, the binding result is “binds”.

B7: Clone 139 (designed binder)
chain: MIPGGLSEAKPATPEIQEIVDKVKPQLEEKTGETYGKLEAVQYKTQVVGLIQPPYAQGTNYYIKVRAGDNKYMHLKVFKSLGWQYIDLFHEDLVLTGYQVDKNKDDELTGF
notes: His-tagged
With B7, the binding result is listed as “binds”.

B8: Clone 127 (designed binder)
chain: MIPGGLSEAKPATPEIQEIVDKVKPQLEEKTGETYGKLEAVQYKTQVVTQAIPWREWGTNYYIKVRAGDNKYMHLKVFKSLIPEWPKDASEDLVLTGYQVDKNKDDELTGF
notes: His-tagged
As to B8, the binding result is “binds”.

B9: Clone 136 (designed binder)
chain: MIPGGLSEAKPATPEIQEIVDKVKPQLEEKTGETYGKLEAVQYKTQVVVLRWQWGYLGTNYYIKVRAGDNKYMHLKVFKSLQLLYEDNDEDLVLTGYQVDKNKDDELTGF
notes: His-tagged
On to B9, for which the binding result is “binds”.

B10: Clone 13 (designed binder)
chain: MIPGGLSEAKPATPEIQEIVDKVKPQLEEKTGETYGKLEAVQYKTQVVLFREEKYNYGTNYYIKVRAGDNKYMHLKVFKSLAWGEVVSNAEDLVLTGYQVDKNKDDELTGF
notes: His-tagged
Consider B10, for which the binding result is listed as “binds”.

B11: Clone 135 (designed binder)
chain: MIPGGLSEAKPATPEIQEIVDKVKPQLEEKTGETYGKLEAVQYKTQVVAVYPTFKYGTNYYIKVRAGDNKYMHLKVFKSLKVEYLDFITEDLVLTGYQVDKNKDDELTGF
notes: His-tagged
B11: the binding result was “binds”.

B12: Clone 14 (designed binder)
chain: MIPGGLSEAKPATPEIQEIVDKVKPQLEEKTGETYGKLEAVQYKTQVVSFLVDPLHLGTNYYIKVRAGDNKYMHLKVFKSLRSFGGEWGWEDLVLTGYQVDKNKDDELTGF
notes: His-tagged
As for B12, the binding result is on record as “binds”.

B13: Clone 134 (designed binder)
chain: MIPGGLSEAKPATPEIQEIVDKVKPQLEEKTGETYGKLEAVQYKTQVVFWFEDIQWLGTNYYIKVRAGDNKYMHLKVFKSLRFREDVDIREDLVLTGYQVDKNKDDELTGF
notes: His-tagged
Turning to B13, the binding result is “binds”.

B14: Clone 162 (designed binder)
chain: MIPGGLSEAKPATPEIQEIVDKVKPQLEEKTGETYGKLEAVQYKTQVVFTFSSIGWWGTNYYIKVRAGDNKYMHLKVFKSLRQLLDKPRYEDLVLTGYQVDKNKDDELTGF
notes: His-tagged
In the case of B14, the binding result is on record as “binds”.

B15: Clone 29 (designed binder)
chain: MIPGGLSEAKPATPEIQEIVDKVKPQLEEKTGETYGKLEAVQYKTQVVFTFVDIHWYGTNYYIKVRAGDNKYMHLKVFKSLRKPKDRQYTEDLVLTGYQVDKNKDDELTGF
notes: His-tagged
For B15, the binding result is on record as “binds”.

B16: Clone 176 (designed binder)
chain: MIPGGLSEAKPATPEIQEIVDKVKPQLEEKTGETYGKLEAVQYKTQVVFWYPEIGWLGTNYYIKVRAGDNKYMHLKVFKSLRSRYPNYTAEDLVLTGYQVDKNKDDELTGF
notes: His-tagged
With B16, the binding result is given as “binds”.

B17: Clone 125 (designed binder)
chain: MIPGGLSEAKPATPEIQEIVDKVKPQLEEKTGETYGKLEAVQYKTQVVTRLHFPQYQGTNYYIKVRAGDNKYMHLKVFKSLEIEVNPYANEDLVLTGYQVDKNKDDELTGF
notes: His-tagged
In the case of B17, the binding result is on record as “binds”.

B18: Clone 133 (designed binder)
chain: MIPGGLSEAKPATPEIQEIVDKVKPQLEEKTGETYGKLEAVQYKTQVVLYSESRDYKGTNYYIKVRAGDNKYMHLKVFKSLHAYKGSIYREDLVLTGYQVDKNKDDELTGF
notes: His-tagged
As for B18, the binding result was “binds”.

B19: Clone 138 (designed binder)
chain: MIPGGLSEAKPATPEIQEIVDKVKPQLEEKTGETYGKLEAVQYKTQVVDNVRHGWLSGTNYYIKVRAGDNKYMHLKVFKSLFALLWSAYGEDLVLTGYQVDKNKDDELTGF
notes: His-tagged
Regarding B19, the binding result is “binds”.

B20: Clone 130 (designed binder)
chain: MIPGGLSEAKPATPEIQEIVDKVKPQLEEKTGETYGKLEAVQYKTQVVPQPEWNEWGVTNYYIKVRAGDNKYMHLKVFKSLIFWNEKLIREDLVLTGYQVDKNKDDELTGF
notes: His-tagged
On to B20, for which the binding result is reported as “binds”.

B21: Clone 131 (designed binder)
chain: MIPGGLSEAKPATPEIQEIVDKVKPQLEEKTGETYGKLEAVQYKTQVVNQWEWPVDLGTNYYIKVRAGDNKYMHLKVFKSLKVYRTHHIFEDLVLTGYQVDKNKDDELTGF
notes: His-tagged
For the molecule B21, the binding result is recorded as “binds”.

B22: Clone 140 (designed binder)
chain: MIPGGLSEAKPATPEIQEIVDKVKPQLEEKTGETYGKLEAVQYKTQVVRQVGVWAYEGTNYYIKVRAGDNKYMHLKVFKSLGRTVEGGRWEDLVLTGYQVDKNKDDELTGF
notes: His-tagged
Turning to B22, the binding result is recorded as “binds”.

B23: Clone 174 (designed binder)
chain: MIPGGLSEAKPATPEIQEIVDKVKPQLEEKTGETYGKLEAVQYKTQVVRQVTIWHFEGTNYYIKVRAGDNKYMHLKVFKSLGRTEVEGSFEDLVLTGYQVDKNKDDELTGF
notes: His-tagged
Regarding B23, the binding result is on record as “binds”.

B24: Clone 120 (designed binder)
chain: MIPGGLSEAKPATPEIQEIVDKVKPQLEEKTGETYGKLEAVQYKTQVDPEVSITRWQGTNYYIKVRAGDNKYMHLKVFKSLYETHGNIITEDLVLTGYQVDKNKDDELTGF
notes: His-tagged
B24: the binding result is “binds”.

B25: Clone 121 (designed binder)
chain: MIPGGLSEAKPATPEIQEIVDKVKPQLEEKTGETYGKLEAVQYKTQVDGNFAHERWQGTNYYIKVRAGDNKYMHLKVFKSLYIARDFDWTEDLVLTGYQVDKNKDDELTGF
notes: His-tagged
Turning to B25, the binding result is listed as “binds”.

B26: Clone 196 (designed binder)
chain: MIPGGLSEAKPATPEIQEIVDKVKPQLEEKTGETYGKLEAVQYKTQVVLLWTPPYVDGTNYYIKVRAGDNKYMHLKVFKSLGWNDDHSVGEDLVLTGYQVDKNKDDELTGF
notes: His-tagged
On to B26, for which the binding result is “binds”.

B27: Clone 19 (designed binder)
chain: MIPGGLSEAKPATPEIQEIVDKVKPQLEEKTGETYGKLEAVQYKTQVVYRFGPPYVKGTNYYIKVRAGDNKYMHLKVFKSLGWNAFSSPAEDLVLTGYQVDKNKDDELTGF
notes: His-tagged
Turning to B27, the binding result was “binds”.

B28: Clone 16 (designed binder)
chain: MIPGGLSEAKPATPEIQEIVDKVKPQLEEKTGETYGKLEAVQYKTQVVHIQWPPWVEGTNYYIKVRAGDNKYMHLKVFKSLGWTSDNSNFEDLVLTGYQVDKNKDDELTGF
notes: His-tagged
With B28, the binding result was “binds”.

B29: Clone 240 (designed binder)
chain: MIPGGLSEAKPATPEIQEIVDKVKPQLEEKTGETYGKLEAVQYKTQVVLLYQAPFVQGTNYYIKVRAGDNKYMHLKVFKSLGWDLEYSQKEDLVLTGYQVDKNKDDELTGF
notes: His-tagged
Regarding B29, the binding result is listed as “binds”.

B30: Clone 154 (designed binder)
chain: MIPGGLSEAKPATPEIQEIVDKVKPQLEEKTGETYGKLEAVQYKTQVVPQIGAPYVKGTNYYIKVRAGDNKYMHLKVFKSLGWNSNIGVLEDLVLTGYQVDKNKDDELTGF
notes: His-tagged
Take B30: the binding result is listed as “binds”.

B31: Clone 219 (designed binder)
chain: MIPGGLSEAKPATPEIQEIVDKVKPQLEEKTGETYGKLEAVQYKTQVVPLTIPPFVEGTNYYIKVRAGDNKYMHLKVFKSLGWQQVNDVKEDLVLTGYQVDKNKDDELTGF
notes: His-tagged
Consider B31, for which the binding result is reported as “binds”.

B32: Clone 12 (designed binder)
chain: MIPGGLSEAKPATPEIQEIVDKVKPQLEEKTGETYGKLEAVQYKTQVVQLKFPPYVSGTNYYIKVRAGDNKYMHLKVFKSLGWDDKPEWDEDLVLTGYQVDKNKDDELTGF
notes: His-tagged
Turning to B32, the binding result is given as “binds”.

B33: Clone 161 (designed binder)
chain: MIPGGLSEAKPATPEIQEIVDKVKPQLEEKTGETYGKLEAVQYKTQVVVLERPPYVKGTNYYIKVRAGDNKYMHLKVFKSLNWEGEPSGVEDLVLTGYQVDKNKDDELTGF
notes: His-tagged
Regarding B33, the binding result was “binds”.
